A word on the stoichiometry N: it is the number of molecules, sites or subunits per partner or assembly.

The source of these data is paper PMC10804811 (Protein Science : A Publication of the Protein Society, 2024).

B1: HsCNNM4 extracellular domain A149S (Jalili syndrome mutation) (domain or fragment, human, UniProt Q6P4Q7 44-175, looked up)
chain: GTIVGMRLASCNKSCGTNPDGIIFVSEGSTVNLRLYGYSLGNISSNLISFTEVDDAETLHKSTSCLELTKDLVVQQLVNVSRGNTSGVLVVLTKFLRRSESMKLYSLCTRAQPDGPWLKWTDKDSLLFMVEE
B2: HsCNNM4 extracellular domain M145T (Jalili syndrome mutation) (domain or fragment, human, UniProt Q6P4Q7 44-175, looked up)
chain: GTIVGMRLASCNKSCGTNPDGIIFVSEGSTVNLRLYGYSLGNISSNLISFTEVDDAETLHKSTSCLELTKDLVVQQLVNVSRGNTSGVLVVLTKFLRRSESTKLYALCTRAQPDGPWLKWTDKDSLLFMVEE
B3: HsCNNM4 extracellular domain N85D (Jalili syndrome mutation) (domain or fragment, human, UniProt Q6P4Q7 44-175, looked up)
chain: GTIVGMRLASCNKSCGTNPDGIIFVSEGSTVNLRLYGYSLGDISSNLISFTEVDDAETLHKSTSCLELTKDLVVQQLVNVSRGNTSGVLVVLTKFLRRSESMKLYALCTRAQPDGPWLKWTDKDSLLFMVEE
B4: HsCNNM4 extracellular domain (residues 44–175), wild type (domain or fragment, human, UniProt Q6P4Q7 44-175, looked up)
chain: GTIVGMRLASCNKSCGTNPDGIIFVSEGSTVNLRLYGYSLGNISSNLISFTEVDDAETLHKSTSCLELTKDLVVQQLVNVSRGNTSGVLVVLTKFLRRSESMKLYALCTRAQPDGPWLKWTDKDSLLFMVEE
B5: HsCNNM4 extracellular domain E95Q (Jalili syndrome mutation) (domain or fragment, human, UniProt Q6P4Q7 44-175, looked up)
chain: GTIVGMRLASCNKSCGTNPDGIIFVSEGSTVNLRLYGYSLGNISSNLISFTQVDDAETLHKSTSCLELTKDLVVQQLVNVSRGNTSGVLVVLTKFLRRSESMKLYALCTRAQPDGPWLKWTDKDSLLFMVEE
B6: HsCNNM4 extracellular domain (residues 44–175) R50A (domain or fragment, human, UniProt Q6P4Q7 44-175, looked up)
chain: GTIVGMALASCNKSCGTNPDGIIFVSEGSTVNLRLYGYSLGNISSNLISFTEVDDAETLHKSTSCLELTKDLVVQQLVNVSRGNTSGVLVVLTKFLRRSESMKLYALCTRAQPDGPWLKWTDKDSLLFMVEE

One data set addresses EgCNNM4 extracellular domain (residues 25–153), wild type (Echinococcus granulosus). As to the kind of experiment: AUC.
Consider “EgCNNM4 extracellular domain (residues 25–153), wild type (domain or fragment)”, for which the stoichiometry N amounted to 2.

A further data set concerns the molecule itself. As to the kind of experiment: AUC.
Consider B1, for which the “stoichiometry N” value amounted to 2.
B2: the “stoichiometry N” value is 2.
Still for that read-out and setting: then B3, with 2.
B4: the “stoichiometry N” value came out at 2.
Regarding B5, the “stoichiometry N” value was determined as 2.
With B6, the “stoichiometry N” value worked out at 2.
